Patent US20140099299A1 (UAB RESEARCH FOUNDATION, published 2014)
Numbering of substitutions follows the chain as printed. Names and notes keep the numbering of the source.

Assays:
[1] = biological target: T1, human IL-10R1 chain coupled to agarose beads (human, UniProt Q13651 22-235); experiment: pull-down of 500 µL Drosophila medium with 15 µL HuIL-10R1-coupled agarose beads, Coomassie-stained SDS-PAGE
T1 construct: also called HuIL-10R1 coupled beads; human IL-10R1 beads
T1 sequence: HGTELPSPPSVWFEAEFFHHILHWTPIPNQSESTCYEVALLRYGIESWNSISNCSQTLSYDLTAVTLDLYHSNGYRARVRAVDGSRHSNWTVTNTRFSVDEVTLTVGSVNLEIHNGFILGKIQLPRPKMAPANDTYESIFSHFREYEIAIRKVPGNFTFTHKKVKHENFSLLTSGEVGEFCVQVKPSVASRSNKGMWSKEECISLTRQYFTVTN

[2] = biological target: T2, human IL-10R1 chain on transfected TF-1 cells (TF-1/HuIL-10R1) (human, UniProt Q13651 22-578); experiment: cell-based or functional assay
T2 sequence: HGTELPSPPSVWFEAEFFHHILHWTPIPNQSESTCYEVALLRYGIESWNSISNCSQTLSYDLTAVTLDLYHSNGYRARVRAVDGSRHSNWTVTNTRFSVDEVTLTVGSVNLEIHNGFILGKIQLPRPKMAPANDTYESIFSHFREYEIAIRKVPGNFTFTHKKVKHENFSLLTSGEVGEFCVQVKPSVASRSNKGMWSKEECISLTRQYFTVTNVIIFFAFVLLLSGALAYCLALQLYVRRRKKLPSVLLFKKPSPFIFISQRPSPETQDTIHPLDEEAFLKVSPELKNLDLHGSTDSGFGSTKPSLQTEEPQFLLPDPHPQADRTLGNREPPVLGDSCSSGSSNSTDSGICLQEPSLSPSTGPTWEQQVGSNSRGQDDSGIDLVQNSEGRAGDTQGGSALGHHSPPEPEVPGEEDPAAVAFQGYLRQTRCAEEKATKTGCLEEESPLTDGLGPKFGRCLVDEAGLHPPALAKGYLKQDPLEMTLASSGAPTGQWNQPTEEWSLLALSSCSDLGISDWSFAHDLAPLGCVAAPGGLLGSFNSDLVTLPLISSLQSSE

B1: H6FXa-rhcmvIL-10 Arg-34Glu point mutant (R63E of SEQ ID NO:1) (ligand)
chain: PPHHHHHHSDIEGRAHDHEHKEVPPACDPVHGNLAGIFKELRATYASIEEGLQKKDTVYYTSLFNDRVLHEMLSPMGCRVTNELMEHYLDGVLPRASHLDYDNSTLNGLHVFASSMQALYQHMLKCPALACTGKTPAWMYFLEVEHKLNPWRGTAKAAAEADLLLNYLETFLLQF
notes: Tested as Drosophila cell supernatant; Its exact end in pAHF cannot be seen because the underlining is lost; also called R34E; Lys-34Glu
binding result [1]: no binding

B2: H6FXa-rhcmvIL-10 Gln-38Arg point mutant (Q67R of SEQ ID NO:1) (ligand)
chain: B1 chain with E49R, Q53R
notes: Tested as Drosophila cell supernatant; also called Q38R
proliferation of TF-1/HuIL-10R1 cells [2]: ~100 fold reduction in activity
binding result [1]: no binding

B3: H6FXa-rhcmvIL-10 Asp-144His point mutant (D176H of SEQ ID NO:1) (ligand)
chain: B1 chain with E49R, D162H
notes: Tested as Drosophila cell supernatant; also called D144H
proliferation of TF-1/HuIL-10R1 cells [2]: ~300 fold reduction in activity
binding result [1]: no binding
